Key:
[1] = target: T1, Phosphatase of Regenerating Liver-3 (PRL-3), recombinant (Homo sapiens, UniProt O75365); test: ELISA
[2] = target: GFP-PRL-3 in HCT116 cells (Homo sapiens, UniProt O75365); test: immunostaining of cells or tissue
[3] = target: 3XFLAG-PRL-3 in HEK293T cells (Homo sapiens, UniProt O75365); test: pull-down
[4] = target: 3XFLAG-tagged PRL-3, recombinant (human, UniProt O75365); test: co-IP
[5] = target: GFP-PRL-1 in HCT116 cells (Homo sapiens, UniProt Q93096); test: immunostaining of cells or tissue
[6] = target: untagged (wild-type) PRL-3 in HCT116 cells (Homo sapiens, UniProt O75365); test: immunostaining of cells or tissue
[7] = target: 3XFLAG-PRL-3 in HCT116 cells (Homo sapiens, UniProt O75365); test: immunostaining of cells or tissue
[8] = target: GFP-PRL-2 in HCT116 cells (Homo sapiens, UniProt Q12974); test: immunostaining of cells or tissue
[9] = target: T1, Phosphatase of Regenerating Liver-3 …; test: HDX-MS
[10] = target: T1, Phosphatase of Regenerating Liver-3 …; test: BLI

Chain of GFP-PRL-2 in HCT116 cells (Q12974 whole entry): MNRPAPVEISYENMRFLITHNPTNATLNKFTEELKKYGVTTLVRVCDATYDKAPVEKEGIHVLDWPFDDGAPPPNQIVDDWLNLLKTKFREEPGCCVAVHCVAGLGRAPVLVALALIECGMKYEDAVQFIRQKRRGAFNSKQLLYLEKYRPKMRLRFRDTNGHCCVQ
T1 sequence (O75365 whole entry): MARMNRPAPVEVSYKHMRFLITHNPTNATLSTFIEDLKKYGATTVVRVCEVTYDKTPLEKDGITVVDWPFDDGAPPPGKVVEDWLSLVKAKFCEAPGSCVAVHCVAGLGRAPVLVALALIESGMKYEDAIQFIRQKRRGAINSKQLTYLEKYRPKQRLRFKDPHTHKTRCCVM
Chain of 3XFLAG-PRL-3 in HEK293T cells (O75365 whole entry): as above
Chain of GFP-PRL-3 in HCT116 cells (O75365 whole entry): as above
Chain of GFP-PRL-1 in HCT116 cells (Q93096 whole entry): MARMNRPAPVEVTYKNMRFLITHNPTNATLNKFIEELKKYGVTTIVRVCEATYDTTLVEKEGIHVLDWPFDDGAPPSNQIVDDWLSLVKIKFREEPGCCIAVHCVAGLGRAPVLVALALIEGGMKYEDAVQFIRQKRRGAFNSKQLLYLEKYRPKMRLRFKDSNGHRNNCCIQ
Chain of untagged (wild-type) PRL-3 in HCT116 cells (O75365 whole entry): as the sequence (O75365 whole entry) above
Chain of 3XFLAG-PRL-3 in HCT116 cells (O75365 whole entry): as above
Chain of 3XFLAG-tagged PRL-3, recombinant (O75365 whole entry): as above

Binder | binding result [1] | binding result [2] | binding result [3] | binding result [4] | binding result [5] | binding result [6] | binding result [7] | binding result [8] | binding result [9] | Kd [10] [nM]
anti-PRL-3 nanobody 4 (VHH) VHH: QVQLQESGGGLVQTGGSLRLSCAASQSTYNFDVMGWYRLAPGKQREFLTSITNGGNIYYADSVKGRFTIARDDSKTTMYLEMNSLKPEDTAVYTCYGQTHKPRVTTSWGQGTQVTVSS | binds | binds | binds | – | – | – | – | – | – | –
anti-PRL-3 nanobody 91 (VHH) VHH: QVQLQESGGGLVQTGGSLRLSCAASQSTFNFDVMGWYRLAPGKQREFLTSITNGGNIYYADSVKGRFTIARDDSKTTMYLEMNSLKPEDTAVYTCYGQTHKPRVTTSWGQGTQVTVSS | – | binds | binds | binds | no binding (tested: 1:100 of 1 mg/mL) | binds | binds | no binding (tested: 1:100 of 1 mg/mL) | binds | –
anti-PRL-3 nanobody 16 (VHH) VHH: QVQLQESGGGLVQTGGSLRLSCAASQSTFNFDVMGWYRLAPGKQREFLTSITNGGNIYYADSVKGRFTTARDDSKTTMYLEMNSLKPEDTAVYTCYGQTHKPRVTTSWGQGTQVTVSS | binds | binds | binds | – | – | – | – | – | – | –
anti-PRL-3 nanobody 10 (VHH) VHH: QVQLQESGGGLVQTGGSLRLSCAASQSTFNFNVMGWYRLAPGKQREFLPSLTNGGNIYYADSVKGRFTIARDDSKTTTYLEMNSLKPEDTAVYTCYGQTHKPRVTTSWGQGTQVTVSS | binds | binds | binds | – | no binding (tested: 1:100 of 1 mg/mL) | – | – | no binding (tested: 1:100 of 1 mg/mL) | – | –
anti-PRL-3 nanobody 19 (VHH) VHH: QVQLQESGGGLVQAGGSLGLSCAASRSIFNFKVMGWYRQAPGKQRELVASITNSDNTYYADSVKGRFTISREDAKTTMYLEMNSLKPEDTAVYRCYGQNWGLRATTYWGQGTQVTVSS | – | – | – | – | – | – | – | – | – | 98.4
anti-PRL-3 nanobody 84 (VHH) VHH: QVQLQESGGGLVQAGGSLGLSCAASRSIFNFKVMGWYRQAPGKQRELVASITNSDNTYYADSVKGRFTISREDAKTTMYLEMNSLKPEDTTVYRCYGQNWGLRATTYWGQGTQVTVSS | binds | binds | binds | – | – | – | – | – | – | –
anti-PRL-3 nanobody 26 (VHH) VHH: QVQLQESGGGLVQPGGSLKLSCVVTGLHYYTEGWFRQAPGKEREGVSCISSSDGRTDYIDSVKGRFTISEDNDNKTVYLQMNTLKPDDTGVYYCVAERGPRGSTWWETYDYWGQGTHVTVSS | – | – | – | – | no binding (tested: 1:100 of 1 mg/mL) | – | – | no binding (tested: 1:100 of 1 mg/mL) | – | 28.9
